Experimental findings from paper PMC314469, “Protein Interaction Networks by Proteome Peptide Scanning” (PLoS Biology, 2004) are described below.

Common to all, as to test: SPOT array
The target of assay [1] is T1, Rvs167 SH3 (RV167_YEAST), P39743.
T1 chain: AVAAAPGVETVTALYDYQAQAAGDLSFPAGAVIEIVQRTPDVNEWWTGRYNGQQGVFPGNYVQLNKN

Assay [2] addresses T2, Boi1 SH3 (BOI1_YEAST), P38041.
T2 chain: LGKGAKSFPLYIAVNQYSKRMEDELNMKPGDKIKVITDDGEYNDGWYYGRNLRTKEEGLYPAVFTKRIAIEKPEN

Assay [3] concerns the target T3, Yfr024 SH3 (LSB3_YEAST), P43603.
T3 chain: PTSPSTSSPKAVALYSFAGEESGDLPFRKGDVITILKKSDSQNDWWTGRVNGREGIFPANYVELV

Assay [4] deals with T4, Boi2 SH3 (BOI2_YEAST), P39969.
T4 chain: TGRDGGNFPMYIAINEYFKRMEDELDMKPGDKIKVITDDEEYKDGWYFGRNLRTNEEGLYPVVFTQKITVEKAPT

Assay [5] has as its target T5, Yhr016c SH3 (YSC84_YEAST), P32793.
T5 chain: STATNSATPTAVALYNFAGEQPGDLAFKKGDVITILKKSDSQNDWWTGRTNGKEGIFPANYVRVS

B1: YGR268C 71-84 (peptide)
chain: SSQPRPPPRPQQNP
Take B1: the normalised SPOT signal, Boehringer light units (BLU); mean over the file's lines of this peptide in assay [1] was found to be 956; in assay [2] it was 69.2; in assay [3], 8620; in assay [4], 5.7; in assay [5], 2040.

B2: YMR255W 106-119 (peptide)
chain: SPPPVSPSKMKTTK
On to B2, for which the normalised SPOT signal, Boehringer light units (BLU); mean over the file's lines of this peptide in assay [1] worked out at 25.3; in assay [2] it was 105; in assay [3], 22.8; in assay [4] it was 45.3; in assay [5], 243.

B3: YMR198W 453-466 (peptide)
chain: SQQPTAPMKKTLLK
Consider B3, for which the normalised SPOT signal, Boehringer light units (BLU); mean over the file's lines of this peptide is 53.5 in assay [1]; 343 in assay [2]; 58.5 in assay [3]; 2.3 in assay [4]; 0 in assay [5].

B4: YKL185W 424-437 (peptide)
chain: SPSPSTPTKSGKMR
Take B4: the normalised SPOT signal, Boehringer light units (BLU); mean over the file's lines of this peptide in assay [1] is 35.3; in assay [2], 278; in assay [3] it was 302; in assay [4], 52.9; in assay [5], 150.

B5: YOL004W 293-306 (peptide)
chain: SSNPDDPIRVTTPM
With B5, the normalised SPOT signal, Boehringer light units (BLU); mean over the file's lines of this peptide came out at 20.9 in assay [1]; 25.6 in assay [2]; 85 in assay [3]; 75.1 in assay [4]; 282 in assay [5].

B6: YBR198C 108-121 (peptide)
chain: SSIPPNPGKTAKPI
As to B6, the normalised SPOT signal, Boehringer light units (BLU); mean over the file's lines of this peptide in assay [1] stood at 56.1; in assay [2] it was 71.5; in assay [3] it was 135; in assay [4] it was 42.9; in assay [5] it was 429.

B7: YLR183C 3-16 (peptide)
chain: SQFPSSPYRTVDPY
With B7, the normalised SPOT signal, Boehringer light units (BLU); mean over the file's lines of this peptide in assay [1] was found to be 37.5; in assay [2], 72; in assay [3], 114; in assay [4] it was 9; in assay [5] it was 330.

B8: YDL117W 117-130 (peptide)
chain: SSMPNSPKKPVDSL
Turning to B8, the normalised SPOT signal, Boehringer light units (BLU); mean over the file's lines of this peptide in assay [1] turned out to be 335; in assay [2], 78.9; in assay [3] it was 902; in assay [4], 90.7; in assay [5], 108.

B9: YER006W 232-245 (peptide)
chain: SSFPTIPLRASSGA
With B9, the normalised SPOT signal, Boehringer light units (BLU); mean over the file's lines of this peptide in assay [1] worked out at 786; in assay [2], 468; in assay [3], 3160; in assay [4] it was 9.1; in assay [5], 777.

B10: YOL006C 72-85 (peptide)
chain: SSLPSPPAKKSATS
With B10, the normalised SPOT signal, Boehringer light units (BLU); mean over the file's lines of this peptide in assay [1] was found to be 40.7; in assay [2] it was 66.2; in assay [3] it was 300; in assay [4], 16.7; in assay [5], 61.3.

B11: YJR033C 1337-1350 (peptide)
chain: SQKPQKPKKSAITK
With B11, the normalised SPOT signal, Boehringer light units (BLU); mean over the file's lines of this peptide in assay [1] came out at 27; in assay [2], 87.8; in assay [3] it was 647; in assay [4] it was 74.5; in assay [5], 81.8.

B12: YIL156W 547-560 (peptide)
chain: SRKPPIPAKQHVKK
For B12, the normalised SPOT signal, Boehringer light units (BLU); mean over the file's lines of this peptide was 14.9 in assay [1]; 51.7 in assay [2]; 4850 in assay [3]; -0 in assay [4]; 35.2 in assay [5].

B13: YIL034C 92-105 (peptide)
chain: SPFPSAPLRKLEIL
Consider B13, for which the normalised SPOT signal, Boehringer light units (BLU); mean over the file's lines of this peptide in assay [1] amounted to 29.4; in assay [2], 49.9; in assay [3] it was 86; in assay [4], 39.5; in assay [5], 205.

B14: YPR171W 184-197 (peptide)
chain: SSPPPLPTRRDHIK
For B14, the normalised SPOT signal, Boehringer light units (BLU); mean over the file's lines of this peptide in assay [1] came to 33600; in assay [2], 56800; in assay [3] it was 35200; in assay [4], 361; in assay [5], 117000.

B15: YMR012W 146-159 (peptide)
chain: SSLPLGPIKERSKQ
Take B15: the normalised SPOT signal, Boehringer light units (BLU); mean over the file's lines of this peptide in assay [1] is 15.4; in assay [2] it was 120; in assay [3], 78; in assay [4], 19.3; in assay [5], -0.

B16: YIL095W 747-760 (peptide)
chain: SRPPRPPPKPLHLR
In the case of B16, the normalised SPOT signal, Boehringer light units (BLU); mean over the file's lines of this peptide turned out to be 565 in assay [1]; 100 in assay [2]; 25900 in assay [3]; 216 in assay [4]; 1020 in assay [5].

B17: YMR068W 249-262 (peptide)
chain: SPLPVLPRRISTHT
With B17, the normalised SPOT signal, Boehringer light units (BLU); mean over the file's lines of this peptide is 19000 in assay [1]; 8950 in assay [2]; 35800 in assay [3]; 40.5 in assay [4]; 29500 in assay [5].

B18: YNL080C 295-308 (peptide)
chain: SQSPKRPKKYPKKA
As to B18, the normalised SPOT signal, Boehringer light units (BLU); mean over the file's lines of this peptide in assay [1] came out at 57.3; in assay [2] it was 47; in assay [3], 624; in assay [4], 36.6; in assay [5] it was 214.

B19: YNL298W 402-415 (peptide)
chain: SPSPLNPYRPHHNM
B19: the normalised SPOT signal, Boehringer light units (BLU); mean over the file's lines of this peptide was determined as 43.7 in assay [1]; 63.4 in assay [2]; 343 in assay [3]; 53.9 in assay [4]; 522 in assay [5].
